Laboratory results: patent US20110263485A1, “Bifunctional Griffithsin Analogs” (priority 2009, published 2011)

Experiments:
Assay in all cases: cell-based or functional assay
[1] = molecular target: HIV-1 91US005 (R5) env (gp120 and gp41) (HIV-1 strain 91US005)
[2] = molecular target: HIV-1 92HT599 (CXCR4-tropic) env (gp120 and gp41) (HIV-1 strain 92HT599)
[3] = molecular target: HIV-1 ADA (R5) env (gp120 and gp41) (HIV-1 strain ADA)
[4] = molecular target: HIV-1 Ba-L (R5) env (gp120 and gp41) (HIV-1 strain Ba-L)
[5] = molecular target: HIV-1 HXB2 env (X4) (gp120 and gp41) (HIV-1 strain HXB2) (UniProt P04578)
[6] = molecular target: HIV-1 IIIB (X4) env (gp120 and gp41) (HIV-1 strain IIIB)
[7] = molecular target: HIV-1 JRFL (R5) env (gp120 and gp41) (HIV-1 strain JRFL)
[8] = molecular target: HIV-1 NL4-3 (CXCR4-tropic) env (gp120 and gp41) (HIV-1 strain NL4-3)

Sequence of Griffithsin (P84801 whole entry X31A): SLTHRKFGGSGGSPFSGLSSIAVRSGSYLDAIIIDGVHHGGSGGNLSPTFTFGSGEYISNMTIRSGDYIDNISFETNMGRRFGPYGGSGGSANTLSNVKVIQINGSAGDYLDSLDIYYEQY

Substance: Griffithsin (from UniProt P84801 1-121)
- Inhibition of HIV virus, 91US005 (R5) in PBMC, IC50 [1]: 160 pM
- Inhibition of HIV virus, 91US005 (R5) in PBMC, IC90 [1]: 510 pM
- Inhibition of HIV-1 Replication in PBMCs, 91US005 (CCR5-tropic), IC50 [1]: 280 pM
- Inhibition of HIV-1 Replication in PBMCs, 91US005 (CCR5-tropic), IC90 [1]: 760 pM
- Inhibition of HIV-1 Replication in PBMCs, 92HT599 (CXCR4-tropic), IC50 [2]: 740 pM
- Inhibition of HIV-1 Replication in PBMCs, 92HT599 (CXCR4-tropic), IC90 [2]: 1860 pM
- Inhibition of HIV single round pseudovirus in TZM-bl cells, ADA (R5), IC50 [3]: 8 pM
- Inhibition of HIV single round pseudovirus in TZM-bl cells, ADA (R5), IC90 [3]: 164 pM
- Inhibition of HIV virus, ADA (R5) in MAGI cells, IC50 [3]: 30 pM
- Inhibition of HIV virus, ADA (R5) in MAGI cells, IC90 [3]: 450 pM
- R5 fusion assay IC50 [3]: 1300 pM
- R5 fusion with competition IC50 [3]: 1730 pM
- R5 fusion with wash-out on ADA cells IC50 [3]: 4280 pM
- R5 fusion with wash-out on P5L cells IC50 [3]: 7340 pM
- Inhibition of HIV virus, Ba-L (R5) in MAGI cells, IC50 [4]: 40 pM
- Inhibition of HIV virus, Ba-L (R5) in MAGI cells, IC90 [4]: 515 pM
- Inhibition of HIV virus, Ba-L (R5) in PBMC, IC50 [4]: 280 pM
- Inhibition of HIV virus, Ba-L (R5) in PBMC, IC90 [4]: 760 pM
- X4 fusion assay IC50 [5]: 468 pM
- Inhibition of HIV virus, IIIB (X4) in MAGI cells, IC50 [6]: 145 pM
- Inhibition of HIV virus, IIIB (X4) in MAGI cells, IC90 [6]: 890 pM
- Inhibition of HIV single round pseudovirus in TZM-bl cells, JRFL (R5), IC50 [7]: 35 pM
- Inhibition of HIV single round pseudovirus in TZM-bl cells, JRFL (R5), IC90 [7]: 1250 pM
- Inhibition of HIV-1 Replication in PBMCs, NL4-3 (CXCR4-tropic), IC50 [8]: 170 pM
- Inhibition of HIV-1 Replication in PBMCs, NL4-3 (CXCR4-tropic), IC90 [8]: 725 pM
